Legend:
[1] = target: T1, rat insulin receptor (INSR) on CHOK1 cells (rat, UniProt P15127 27-1383); test: flow cytometry on CHOK1 cells expressing the INSR ortholog; Fab, anti-human kappa FITC detection
T1 construct: whole, on cells; CHOK1 cells over-expressing rat INSR; also called rat INSR ortholog

[2] = target: T2, human insulin receptor (INSR) on CHOK1 cells (human, UniProt P06213 28-1382); test: as above
T2 construct: whole, on cells; CHOK1 cells over-expressing human INSR; also called human INSR; hINSR

[3] = target: T3, cynomolgus insulin receptor (INSR) on CHOK1 cells (cyno, UniProt A0A7N9D6H3 48-1390); test: as above
T3 construct: whole, on cells; CHOK1 cells over-expressing cyno INSR; also called cynomologous INSR ortholog; monkey INSR

[4] = target: T4, minipig insulin receptor (INSR) on CHOK1 cells (minipig, UniProt F1SCL0 28-758; F1SCL0 763-1382); test: as above
T4 construct: Cells expressing minipig INSR; also called minipig INSR

[5] = target: T1, rat insulin receptor (INSR) on CHOK1 …; test: cell-based or functional assay
[6] = target: T2, human insulin receptor (INSR) on CHOK1 …; test: cell-based or functional assay
[7] = target: T3, cynomolgus insulin receptor (INSR) on …; test: cell-based or functional assay
[8] = target: T4, minipig insulin receptor (INSR) on …; test: cell-based or functional assay
[9] = target: T5, solubilized human INSR (B isoform) from CHO-hINSR-B cells, without insulin (human, UniProt P06213 28-1382); test: SPR (ProteOn XPR36), solubilized INSR-B captured by CT-3 mAb, Fab injected, -insulin
T5 construct: mature; Detergent-solubilized full-length receptor in cell lysate, captured on the SPR chip by its carboxy-terminal part; also called solubilized INSR

[10] = target: T6, Recombinant human insulin receptor (B form) ECD (R&D Systems) (human, UniProt P06213 28-956, limits assumed); test: SPR (Biacore 2000), INSR-ECD immobilised; relative to 247.2.018 Fab
T6 construct: extracellular domain; also called INSR-ECD; h-INSR

[11] = target: T6, Recombinant human insulin receptor (B …); test: SPR (Biacore 2000), INSR-ECD immobilised, purified Fab injected, 1:1 fit [cont'd]
[12] = target: T6, Recombinant human insulin receptor (B …); test: SPR (Biacore 2000), INSR-ECD immobilised, purified Fab injected, 1:1 fit
[13] = target: T2, human insulin receptor (INSR) on CHOK1 …; test: binding to CHO cells expressing human INSR; 1st column headed CHO Human INSR; quantity and unit not printed [cont'd]
[14] = target: T3, cynomolgus insulin receptor (INSR) on …; test: binding to CHO cells expressing cyno INSR; 1st column headed CHO Cyno INSR; quantity and unit not printed [cont'd]
[15] = target: T1, rat insulin receptor (INSR) on CHOK1 …; test: binding to CHO cells expressing rat INSR; 1st column headed CHO Rat INSR; quantity and unit not printed [cont'd]
[16] = target: T1, rat insulin receptor (INSR) on CHOK1 …; test: binding to CHO cells expressing rat INSR; 2nd column headed CHO Rat INSR (the 1st column's numbers with more digits); quantity and unit not printed [cont'd]
[17] = target: T3, cynomolgus insulin receptor (INSR) on …; test: binding to CHO cells expressing cyno INSR; 2nd column headed CHO Cyno INSR (same numbers as the 1st); quantity and unit not printed [cont'd]
[18] = target: T2, human insulin receptor (INSR) on CHOK1 …; test: binding to CHO cells expressing human INSR; 2nd column headed CHO Human INSR; quantity and unit not printed [cont'd]

B1: XPA.15.247 Fab (Fab, V domains shown)
VH: EVQLVETGGGVVQPGRSLRLSCAASGFTFSSYAMHWVRQAPGKGLEWVAVISYDGSNKYYADSVKGRFTISRDNSKNTLYLQMNSLRAEDTAVYYCARHEWGFGMDVWGQGTTVTVSS
VL: DVVMTQSPLSLSVTLGQPASISCRSSLSLVYGDENTYLNWFQQRPGQSPRRLLYKVSDRDSGVPDRFSGSGSGTDFTLKISRVEADDVGVYYCMQGTHWPYTFGQGTKLEIKR
notes: Monomeric Fab; also called Fab247; XPA.15.247 parent Fab
In the case of B1, the EC50 [1] is reported as 11.8 nM, the EC50 [2] is reported as 34.8 nM and the EC50 [3] is reported as 93 nM. The EC50 [4] was 39.8 nM, the “EC50 (nM), pAKT signaling assay” value [5] was 46.6 nM and the “EC50 (nM), pAKT signaling assay” value [6] was 44 nM. The “EC50 (nM), pAKT signaling assay” value [7] was 82.4 nM, the “EC50 (nM), pAKT signaling assay” value [8] was 20.7 nM and the Kd [9] was 56 nM. It also gave a koff [9] of 0.00211 s⁻¹ and a kon [9] of 37400 M⁻¹ s⁻¹.

B2: RHF.15.05896.006 (Fab, V domains shown)
VH: EVQLVETGGGVVQPGRSLRLSCAASGFKFSSYAMHWVRQAPGKGLEWVAVISYSGDNKYYADSVKGRFTISRDNSKNTLYLQMNSLRAEDTAVYYCARHEWGFGFDRWGQGTTVTVSS
VL: DVVMTQSPLSLPVTLGQPASISCRSSQSLVYGDGNTYLNWFQQRPGQSPRRLIYKVSNRDSGVPDRFSGSGSGTEFTLKISRVEAEDVGVYFCMQGTYWPGTFGGGTKLEIKR
notes: Untagged Fab
B2 was tested, and the “Fold KD Improvement” value [10] was 5.2 fold, the koff [11] was 0.00024 s⁻¹ and the kon [11] was 130000 M⁻¹ s⁻¹. For the same binder, the Kd [12] was 1.9 nM and the “CHO Human INSR” value [13] was 2.95.

B3: RHF.15.05896.015 (Fab, V domains shown)
VH: EVQLVETGGGVVQPGRSLRLSCAASGFKFSSYAMHWVRQAPGKGLEWVAVISYSGRNKYYADSVKGRFTISRDNSKNTLYLQMNSLRAEDTAVYYCARHEWGFGQDYWGQGTTVTVSS
VL: DVVMTQSPLSLPVTLGQPASISCRSSQSLVYGDGNTYLNWFQQRPGQSPRRLIYKVSNRDSGVPDRFSGSGSGTEFTLKISRVEAEDVGVYFCMQGTYWPGTFGGGTKLEIKR
notes: Untagged Fab
For B3, the “Fold KD Improvement” value [10] was 3.3 fold, the koff [11] was 0.00025 s⁻¹ and the kon [11] was 84000 M⁻¹ s⁻¹. The Kd [12] was 3 nM and the “CHO Human INSR” value [13] was 4.35.

B4: RHF.15.05896.020 (Fab, V domains shown)
VH: EVQLVETGGGVVQPGRSLRLSCAASGFKFSSYAMHWVRQAPGKGLEWVAVISWSGSNKYYADSVKGRFTISRDNSKNTLYLQMNSLRAEDTAVYYCARHEWGFGFDEWGQGTTVTVSS
VL: DVVMTQSPLSLPVTLGQPASISCRSSQSLVYGDGNTYLNWFQQRPGQSPRRLIYKVSNRDSGVPDRFSGSGSGTEFTLKISRVEAEDVGVYFCMQGTYWPGTFGGGTKLEIKR
notes: Untagged Fab
In the case of B4, the “CHO Cyno INSR” value [14] is reported as 0.911, the “CHO Rat INSR” value [15] is reported as 0.661 and the “Fold KD Improvement” value [10] is reported as 6.4 fold. For the same binder, the “CHO Rat INSR” value [16] was 0.66, the “CHO Cyno INSR” value [17] was 0.911 and the koff [11] was 0.00017 s⁻¹. The kon [11] was 110000 M⁻¹ s⁻¹, the Kd [12] was 1.5 nM and the “CHO Human INSR” value [18] was 0.838. For the same binder, the “CHO Human INSR” value [13] was 1.96.

B5: RHF.15.05896.032 (Fab, V domains shown)
VH: EVQLVETGGGVVQPGRSLRLSCAASGFKFSSYAMHWVRQAPGKGLEWVAVISYSGENKYYADSVKGRFTISRDNSKNTLYLQMNSLRAEDTAVYYCARHEWGFGFDEWGQGTTVTVSS
VL: DVVMTQSPLSLPVTLGQPASISCRSSQSLVYGDGNTYLNWFQQRPGQSPRRLIYKVSNRDSGVPDRFSGSGSGTEFTLKISRVEAEDVGVYFCMQGTYWPGTFGGGTKLEIKR
notes: Untagged Fab
In the case of B5, the “Fold KD Improvement” value [10] is reported as 8.6 fold, the koff [11] is reported as 0.0001 s⁻¹ and the kon [11] is reported as 91000 M⁻¹ s⁻¹. The Kd [12] was 1.1 nM and the “CHO Human INSR” value [13] was 3.1.

B6: RHF.15.05896.036 (Fab, V domains shown)
VH: EVQLVETGGGVVQPGRSLRLSCAASGFKFSSYAMHWVRQAPGKGLEWVAVISYSGGNKYYADSVKGRFTISRDNSKNTLYLQMNSLRAEDTAVYYCARHEWGFGFDLWGQGTTVTVSS
VL: DVVMTQSPLSLPVTLGQPASISCRSSQSLVYGDGNTYLNWFQQRPGQSPRRLIYKVSNRDSGVPDRFSGSGSGTEFTLKISRVEAEDVGVYFCMQGTYWPGTFGGGTKLEIKR
notes: Untagged Fab
With B6 the “Fold KD Improvement” value [10] was 5.4 fold, the koff [11] was 0.00022 s⁻¹ and the kon [11] was 120000 M⁻¹ s⁻¹. The Kd [12] was 1.8 nM and the “CHO Human INSR” value [13] was 3.04.

B7: RHF.15.05896.044 (Fab, V domains shown)
VH: EVQLVETGGGVVQPGRSLRLSCAASGFKFSSYAMHWVRQAPGKGLEWVAVISNSGSNKYYADSVKGRFTISRDNSKNTLYLQMNSLRAEDTAVYYCARHEWGFGFDKWGQGTTVTVSS
VL: DVVMTQSPLSLPVTLGQPASISCRSSQSLVYGDGNTYLNWFQQRPGQSPRRLIYKVSNRDSGVPDRFSGSGSGTEFTLKISRVEAEDVGVYFCMQGTYWPGTFGGGTKLEIKR
notes: Untagged Fab
With B7 the “Fold KD Improvement” value [10] was 7.4 fold, the koff [11] was 0.00017 s⁻¹ and the kon [11] was 130000 M⁻¹ s⁻¹. The Kd [12] was 1.3 nM and the “CHO Human INSR” value [13] was 2.52.

B8: RHF.15.05896.056 (Fab, V domains shown)
VH: EVQLVETGGGVVQPGRSLRLSCAASGFKFSSYAMHWVRQAPGKGLEWVAVISYGGSNKYYADSVKGRFTISRDNSKNTLYLQMNSLRAEDTAVYYCARHEWGFGFDEWGQGTTVTVSS
VL: DVVMTQSPLSLPVTLGQPASISCRSSQSLVYGDGNTYLNWFQQRPGQSPRRLIYKVSNRDSGVPDRFSGSGSGTEFTLKISRVEAEDVGVYFCMQGTYWPGTFGGGTKLEIKR
notes: Untagged Fab
In the case of B8, the “Fold KD Improvement” value [10] is reported as 6.9 fold, the koff [11] is reported as 0.00017 s⁻¹ and the kon [11] is reported as 120000 M⁻¹ s⁻¹. The Kd [12] was 1.4 nM and the “CHO Human INSR” value [13] was 2.26.

B9: RHF.15.05896.068 (Fab, V domains shown)
VH: EVQLVETGGGVVQPGRSLRLSCAASGFKFSSYAMHWVRQAPGKGLEWVAVISYSGGNKYYADSVKGRFTISRDNSKNTLYLQMNSLRAEDTAVYYCARHEWGFGYDYWGQGTTVTVSS
VL: DVVMTQSPLSLPVTLGQPASISCRSSQSLVYGDGNTYLNWFQQRPGQSPRRLIYKVSNRDSGVPDRFSGSGSGTEFTLKISRVEAEDVGVYFCMQGTYWPGTFGGGTKLEIKR
notes: Untagged Fab
B9 was tested, and the “CHO Cyno INSR” value [14] was 0.854, the “CHO Rat INSR” value [15] was 0.533 and the “Fold KD Improvement” value [10] was 8.3 fold. The “CHO Rat INSR” value [16] was 0.533, the “CHO Cyno INSR” value [17] was 0.854 and the koff [11] was 0.00038 s⁻¹. The kon [11] was 320000 M⁻¹ s⁻¹, the Kd [12] was 1.2 nM and the “CHO Human INSR” value [18] was 0.762. For the same binder, the “CHO Human INSR” value [13] was 1.25.

B10: XPA.15.247.2.011 Fab (Fab, V domains shown)
VH: EVQLVETGGGVVQPGRSLRLSCAASGFTFSSYAMHWVRQAPGKGLEWVAVISYSGSNKYYADSVKGRFTISRDNSKNTLYLQMNSLRAEDTAVYYCARHEWGFGFDYWGQGTTVTVSS
VL: DVVMTQSPLSLPVTLGQPASISCRSSHSLVYGDGNTYLNWFHQRPGQSPRRLIYKVSNRDSGVPDRFAGSGSGTDFTLKISRVEADDFGVFYCMQGTHWPYTFGQGTKLEIKR
notes: Fab; also called XPA.15.247.011
B10 gave an EC50 [1] of 1.9 nM, an EC50 [2] of 2.7 nM and an EC50 [3] of 17.2 nM. The EC50 [4] was 5.8 nM, the “EC50 (nM), pAKT signaling assay” value [5] was 7.8 nM and the “EC50 (nM), pAKT signaling assay” value [6] was 5 nM. For the same binder, the “EC50 (nM), pAKT signaling assay” value [7] was 6.2 nM, the “EC50 (nM), pAKT signaling assay” value [8] was 4.4 nM and the Kd [9] was 10 nM. For the same binder, the koff [9] was 0.000705 s⁻¹ and the kon [9] was 70400 M⁻¹ s⁻¹.

Reference: patent publication US20180251562A1 (XOMA US, published 2018)
